Test [1] has as its target T1, human G protein-coupled receptor class C group 5 member D (GPRC5D) (human, UniProt Q9NZD1 1-345).
T1 construct: also called hGPRC5D
The test is described as follows: ELISA-based epitope mapping on overlapping 15-mer peptides of the GPRC5D extracellular domains linked to scaffolds (linear, conformational, discontinuous).

In test [2] the target is T1, human G protein-coupled receptor class …. The test is described as follows: scFv phage clones from panning on hGPRC5D-aAPCs, binding to MM cell lines MM.1S and NCI-H929 (endogenous GPRC5D).
For test [3], the target named is cynomolgus GPRC5D (cynomolgus). The test is described as follows: cell-based or functional assay.
Another test deals with T2, CD86 (human, UniProt P42081).
T2 construct: expressed on the surface of HEK293 cells in a cell microarray spot; target of the positive control
T2 sequence (single chain, looked up): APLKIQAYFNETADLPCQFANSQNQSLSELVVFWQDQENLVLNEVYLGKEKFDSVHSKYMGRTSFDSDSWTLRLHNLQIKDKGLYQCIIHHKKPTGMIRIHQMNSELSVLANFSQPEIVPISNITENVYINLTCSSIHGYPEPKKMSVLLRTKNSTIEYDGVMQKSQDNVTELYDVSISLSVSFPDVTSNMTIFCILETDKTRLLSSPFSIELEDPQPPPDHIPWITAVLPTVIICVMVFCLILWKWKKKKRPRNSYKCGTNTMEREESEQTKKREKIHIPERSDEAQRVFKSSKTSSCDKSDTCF
The test is described as follows: cell microarray of HEK293 cells expressing the indicated surface protein, probed with scFv-mIgG2a Fc. The method, then:
(§1) Cell microarrays were assessed for binding by automated fluorescent microscopy with a fluorescently labeled anti-mIgG2a secondary antibody.

The target in a further test is T3, EGFR (human, UniProt P00533).
T3 construct: expressed on the surface of HEK293 cells in a cell microarray spot
The description is as above. The method, then: as §1

Another test concerns the target T4, SLC38A2 (human, UniProt Q96QD8).
T4 construct: expressed on the surface of HEK293 cells in a cell microarray spot
T4 sequence (single chain, looked up): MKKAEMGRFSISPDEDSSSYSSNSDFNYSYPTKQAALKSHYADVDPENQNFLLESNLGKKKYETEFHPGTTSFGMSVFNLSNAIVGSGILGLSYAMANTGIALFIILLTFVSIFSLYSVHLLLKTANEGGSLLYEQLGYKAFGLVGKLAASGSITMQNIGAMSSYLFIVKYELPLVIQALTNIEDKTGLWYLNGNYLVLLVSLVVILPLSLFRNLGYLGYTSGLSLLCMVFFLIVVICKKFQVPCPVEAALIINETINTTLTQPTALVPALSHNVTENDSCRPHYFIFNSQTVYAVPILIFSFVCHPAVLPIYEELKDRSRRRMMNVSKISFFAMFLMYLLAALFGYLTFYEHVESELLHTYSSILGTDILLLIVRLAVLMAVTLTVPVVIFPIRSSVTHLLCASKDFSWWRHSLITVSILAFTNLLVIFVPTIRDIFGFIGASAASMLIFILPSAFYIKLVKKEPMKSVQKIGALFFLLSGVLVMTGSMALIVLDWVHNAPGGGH
The description is as above. The method, then: as §1

For test [4], the target named is T1, human G protein-coupled receptor class …. The test is described as follows: cell-cell interaction by automated flow cytometry: HEK293 cells with the non-signaling GPRC5D-203 long spacer CAR (mCherry) against HEK293 cells each expressing one human GPCR (GFP); Z-score. The method, then: In parallel, the cDNA of individual receptors from a library of human GPCRs, in a vector expressing cytoplasmic GFP, was transiently expressed in the HEK293 cells. […] Binding was determined using an automated flow cytometric assay that detects cell-cell interaction.
(A flow cytometer gives signals particle by particle.)

T1 sequence (Q9NZD1 whole entry): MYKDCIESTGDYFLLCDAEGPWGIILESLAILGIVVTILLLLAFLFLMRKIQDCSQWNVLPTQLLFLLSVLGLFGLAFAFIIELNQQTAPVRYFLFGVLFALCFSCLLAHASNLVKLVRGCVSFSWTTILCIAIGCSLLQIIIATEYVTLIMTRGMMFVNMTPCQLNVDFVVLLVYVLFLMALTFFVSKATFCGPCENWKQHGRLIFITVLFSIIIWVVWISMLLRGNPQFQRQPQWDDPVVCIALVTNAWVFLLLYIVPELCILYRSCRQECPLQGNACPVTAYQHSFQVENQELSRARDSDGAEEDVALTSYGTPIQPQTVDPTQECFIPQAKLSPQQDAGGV

B1: GPRC5D-203 scFv clone (scFv, V domains shown)
VH: QVQLVESGGGLVHPGGSLRLSCAASGFTFRSHSMNWVRQAPGKGLEWVSSISSDSTYTYYADSVKGRFTISRDNAKNSLYLQMNSLRAEDTAVYYCARSGGQWKYYDYWGQGTLVTVSS
VL: SSELTQDPAVSVALGQTVRITCQGDSLRSYYASWYQQKPGQAPVLVIYGKNNRPSGIPDRFSGSSSGNTASLTITGAQAEDEADYYCNSRDSSGNPPVVFGGGTKLTVLG
notes: Human scFv from a phage display library
Regarding B1, the binding result in test [1] is reported as “binds”.

B2: GPRC5D-204 scFv clone (scFv, V domains shown)
VH: EVQLVESGGGLVQPGGSLRLSCAASGFTFSNYAMSWVRQAPGKGLEWVSAISGSGNTYYADSVKGRFTISRDNSKNTLYLQMNSLRAEDTAVYYCARGSVRYTDIWGQGTLVTVSS
VL: NFMLTQPHSVSESPGKTVSISCTRTSGAIAGAYVQWFQQRPGSAPTTVIYDDNKRPSGVPDRFSGSIDKSSNSASLTISGLKTEDEADYYCQSYDYDSSNVLFGGGTKLTVLG
notes: as for B1
With B2, the binding result in test [2] was “binds”.

B3: GPRC5D-202 VH/VL - long (anti-GPRC5D CAR) (protein)
chain: EVQLVESGGGLVKPGGSLRLSCAASGFTFSDYYMSWIRQAPGKGLEWVSYISSSGSTIYYADSVKGRFTISRDNAKNSLYLQMNSLRAEDTAVYYCARGYGKAYDQWGQGTLVTVSSGSRGGGGSGGGGSGGGGSLEMAQSVLTQPPSASGTPGQRVTISCSGSRSNVGGNYVFWYQQVPGATPKLLIYRSNQRPSGVPDRFAGSKSGSSASLAISGLRSEDEADYYCATWDDSLSGFVFGTGTKVTVLESKYGPPCPPCPAPPVAGPSVFLFPPKPKDTLMISRTPEVTCVVVDVSQEDPEVQFNWYVDGVEVHNAKTKPREEQFQSTYRVVSVLTVLHQDWLNGKEYKCKVSNKGLPSSIEKTISKAKGQPREPQVYTLPPSQEEMTKNQVSLTCLVKGFYPSDIAVEWESNGQPENNYKTTPPVLDSDGSFFLYSRLTVDKSRWQEGNVFSCSVMHEALHNHYTQKSLSLSLGKMFWVLVVVGGVLACYSLLVTVAFIIFWVKRGRKKLLYIFKQPFMRPVQTTQEEDGCSCRFPEEEEGGCELRVKFSRSADAPAYQQGQNQLYNELNLGRREEYDVLDKRRGRDPEMGGKPRRKNPQEGLYNELQKDKMAEAYSEIGMKGERRRGKGHDGLYQGLSTATKDTYDALHMQALPPR
Turning to B3, the interferon gamma release by CAR-transduced NHP T cells in test [3] amounted to 10000 pg/mL.

B4: GPRC5D-200 scFv clone (scFv, V domains shown)
VH: EVQLVESGGAFVQPGGSLRLSCAASGFTFSSYAMTWVRQAPGKGLEWVSTISGRGRSTFYADSVKGRFTISRDNSKNTLYLQMNSLRAEDTAVYYCARYYHAGAFDLWGQGTLVTVSS
VL: QSVVTQPASVSGSPGQSITISCTGTSSDVGGYNYVSWYQQHPGKAPKLMIYDVSKRPSGVSNRFSGSKSGNTASLTISGLQAEDEADYYCSSYTSSSTLVFGGGTKLTVLG
notes: Human scFv from a B cell-derived phage display library
Regarding B4, the binding result in test [2] is given as “binds”.

B5: GPRC5D-202 scFv clone (scFv, V domains shown)
VH: EVQLVESGGGLVKPGGSLRLSCAASGFTFSDYYMSWIRQAPGKGLEWVSYISSSGSTIYYADSVKGRFTISRDNAKNSLYLQMNSLRAEDTAVYYCARGYGKAYDQWGQGTLVTVSS
VL: QSVLTQPPSASGTPGQRVTISCSGSRSNVGGNYVFWYQQVPGATPKLLIYRSNQRPSGVPDRFAGSKSGSSASLAISGLRSEDEADYYCATWDDSLSGFVFGTGTKVTVLG
notes: as for B1
Consider B5, for which the binding result in test [1] is given as “binds”.

B6: anti-GPRC5D-203 VL/VH scFv (SEQ ID NO: 8) fused to an mIgG2a Fc (Fc fusion, not shown: a dimerising Fc or GST; small tags and cut ends)
scFv: SSELTQDPAVSVALGQTVRITCQGDSLRSYYASWYQQKPGQAPVLVIYGKNNRPSGIPDRFSGSSSGNTASLTITGAQAEDEADYYCNSRDSSGNPPVVFGGGTKLTVLGSRGGGGSGGGGSGGGGSLEMAQVQLVESGGGLVHPGGSLRLSCAASGFTFRSHSMNWVRQAPGKGLEWVSSISSDSTYTYYADSVKGRFTISRDNAKNSLYLQMNSLRAEDTAVYYCARSGGQWKYYDYWGQGTLVTVSS
notes: also called scFv-Fc
In the case of B6, the binding result with CD86, in the test with EGFR and with SLC38A2 was “no binding” in each case.

B7: GPRC5D-201 scFv clone (scFv, V domains shown)
VH: QMQLVQSGAEVKKPGASVKVSCKASGYTFNRYAITWVRQAPGQGLEWMGWISAYNGNSHYAQKLQGRVTMTTDTSTGTAYMELRRLRSDDTAVYYCARMAYDSWGQGTLVTVSS
VL: QSVLTQPASVSGSPGQSLTISCTGTSNDVGAYKYVSWYQQYPGKAPKLILYDVFKRPSGVSNRFSGSKSDNTASLTISGLQAEDEADYYCFSLTSSNTYVFGTGTKVTVLG
notes: as for B1
Regarding B7, in test [1], the binding result is “binds”.

B8: GPRC5D-203 VL/VH, long spacer CAR but lacking the signaling domains (other)
chain: SSELTQDPAVSVALGQTVRITCQGDSLRSYYASWYQQKPGQAPVLVIYGKNNRPSGIPDRFSGSSSGNTASLTITGAQAEDEADYYCNSRDSSGNPPVVFGGGTKLTVLGSRGGGGSGGGGSGGGGSLEMAQVQLVESGGGLVHPGGSLRLSCAASGFTFRSHSMNWVRQAPGKGLEWVSSISSDSTYTYYADSVKGRFTISRDNAKNSLYLQMNSLRAEDTAVYYCARSGGQWKYYDYWGQGTLVTVSSESKYGPPCPPCPAPPVAGPSVFLFPPKPKDTLMISRTPEVTCVVVDVSQEDPEVQFNWYVDGVEVHNAKTKPREEQFQSTYRVVSVLTVLHQDWLNGKEYKCKVSNKGLPSSIEKTISKAKGQPREPQVYTLPPSQEEMTKNQVSLTCLVKGFYPSDIAVEWESNGQPENNYKTTPPVLDSDGSFFLYSRLTVDKSRWQEGNVFSCSVMHEALHNHYTQKSLSLSLGKMFWVLVVVGGVLACYSLLVTVAFIIFWV
notes: Transiently expressed on HEK293 cells from a cell surface expression vector with cytoplasmic mCherry; also called non-signaling CAR
Regarding B8, the binding result in test [4] is reported as “binds”.

B9: GPRC5D-205 scFv clone (scFv, V domains shown)
VH: EVQLVESGGGLIQPGGSLRLSCAASGFTFSNYAMNWVRQAPGKGLEWVSTINGRGSSTIYADSVKGRFTISRDNSKNTLYLQMNSLRAEDTATYYCARYISRGLGDSWGQGTLVTV
VL: QSVVTQPPSMSAAPGQQVTISCSGGNSNIERNYVSWYLQLPGTAPKLVIFDNDRRPSGIPDRFSGSKSGTSATLGITGLQTGDEADYYCGTWDSSLRGWVFGGGTKLTVLG
notes: as for B1
With B9, the binding result in test [1] is given as “binds”.

B10: GPRC5D-206 scFv clone (scFv, V domains shown)
VH: QVQLVQSGAEVKKPGASVKVSCKASGYTFTSYYMHWVRQAPGQGLEWMGIINPSGGSTRYAQKFQGRVTMTRDTSTSTVYMELSSLRSEDTAVYYCARGSSRWGGWTGDYWGQGTLVTVSS
VL: QSALTQPASVSGSPGQSITISCTGTSSDVGGYNFVSWYQQHPGKAPKVMIYDVSKRPSGISNRFSGSKSGNTASLTISGLQVEDEAEYYCSSYTSTRTVIFAGGTKVTVLG
notes: as for B1
As for B10, in test [2], the binding result was “binds”.

These data come from patent publication US20210393689A1 (JUNO THERAPEUTICS, published 2021).
